Assays:
Ramos cells = assay: Flow-cytometric IgG binding, Ramos cells mixed with peripheral blood leukocytes; design: species or system human
Description: (§1) Washing was repeated twice.

monocyte cells = assay: as above; design: species or system human
Description: as §1

[1] = tested on: other monitored peripheral blood leukocyte subsets; assay: as above; design: species or system human
Description: as §1

[2] = tested on: peripheral blood B lymphocytes; assay: as above; design: species or system human
Description: as §1

primary patient MM cells = assay: SCID-hu mouse model of multiple myeloma; format: in vivo
Procedure: Bone marrow cells (>20% plasma cells) from myeloma patients (two patients in experiment 1 [top panel] and two different patients in experiment 2 [lower panel]) were injected into transplanted human fetal bones of SCID-hu mice. Four weeks after myeloma cell inoculation mice were divided into four groups to yield similar mean hIgG levels between groups, each group comprising mice grafted with MM cells from the different patient donors used in the experiment, and twice weekly treatment with 2 mg/kg BI-505, 1 mg/kg bortezomib or 2 mg/kg control human IgG was started (arrow). […] Graphs show mean hIgG concentrations.
Primary human MM cells depend on interactions with bone marrow stromal cells to proliferate and survive. The SCID-hu mouse harbors a human microenvironment where primary patient MM cells proliferate and induce pathology similar to human clinical MM (Yaccoby et al., 1998). MM cell derived human IgG titers were detected (>10 μg/ml) in the serum of SCID-hu mice four weeks after implantation of human MM cells to transplanted human bones, at which time treatment with antibodies (2 mg/kg) or bortezomib (1 mg/kg) began. Human IgG titers increased steadily in control treated SCID-hu mice over the course of experimentation to reach maximal concentrations of 40±5 μg/ml just before sacrifice (FIG. 18B and FIG. 19). […] Two independent experiments were performed with similar results (FIG. 18B and FIG. 19), each with MM cells from two different patient donors (n=4).
Human fetal femurs and tibias, obtained at 17 to 22 gestational weeks, were cut into fragments and implanted subcutaneously in SCID mice (SCID-hu) at age 6 to 8 weeks. Each animal was implanted with one bone fragment. Four weeks after bone implantation, 2 to 14×10^6 bone marrow cells from each patient (two patients per experiment for a total of four patients in two independent experiments, n=4), containing>20% plasma cells were injected directly into the human bone of 6 to 8 SCID-hu mice in a final volume of 30 to 40 μl of phosphate-buffered saline (PBS). One group of mice was implanted with bone only and served as “healthy” bone control. Mouse sera were serially monitored for human immunoglobulin (hIg) and the isotype levels were used as an indicator of myeloma cell growth by elisa. When hIg level reached 10 μg/mL or higher in 2 consecutive measurements after 4 weeks of injection of the tumor cells, the mice were divided into four groups to yield similar mean hIgG levels between groups, each group comprising mice grafted with MM cells from the different patient donors used in each experiment. The four treatment groups were: healthy control group (no myeloma cells injected and no drug treatment), isotype control group (myeloma cells injected and treated with isotype control IgG, 2 mg/kg, i.p., twice weekly), BI505 group (myeloma cells injected and treated with BI505, 2 mg/kg, i.p., twice weekly) and bortezomib group (myeloma cells injected and treated with 1 mg/kg, i.p., twice weekly). In some graphs hIgG levels were normalized to pretreatment (4 weeks) levels and the percent increase or decrease in hIgG levels as a function of treatment and time was analyzed. Normalized data from animals receiving the same treatment (control IgG, BI-505 or bortezomib) but grafted with MM cells from each of the four different patient donors in the two experiments were pooled and statistical difference was assessed by grouped 2-way ANOVA test and Bonferroni's posttest using GraphPad Prism 5 software. Patient myeloma cells were taken after informed consent and with the approval of the local ethics committee. For x-radiography evaluation and quantification of bone mineral density (BMD) mice in the four groups were sacrificed and the implanted human bones were taken out and fixed in 10% formalin solution. Radiographs were taken with an AXR Minishot-100 beryllium source instrument (Associated X-Ray Imaging Corp., Haverhill, Mass., USA) and 100 s exposure at 30 kV. […]

mouse FcγRIV = biological target: T1, mouse FcγRIV (Mus musculus, UniProt A0A0B4J1G0); assay: BiaCore analysis of BI-505 Fc-variant binding to FcγR
T1 construct: made in house; host or cells: HEK293E cells (transient)
T1 sequence (A0A0B4J1G0 21-249): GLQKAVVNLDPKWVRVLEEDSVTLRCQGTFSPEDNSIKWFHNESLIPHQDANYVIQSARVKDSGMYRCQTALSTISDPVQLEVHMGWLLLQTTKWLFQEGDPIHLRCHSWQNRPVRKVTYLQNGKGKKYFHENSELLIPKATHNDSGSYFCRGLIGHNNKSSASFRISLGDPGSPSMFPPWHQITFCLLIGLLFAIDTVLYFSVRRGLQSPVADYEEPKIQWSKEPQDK
Procedure: (FIG. 20B) BiaCore analysis of BI-505 Fc-variant antibodies binding to mouse FcγRIV.
His-tagged human FcγRIIIa and mouse FcγRIV were transiently expressed in HEK293E cells, purified using Ni-NTA chromatography, and characterized by SDS-PAGE and/or Biacore. Surface plasmon resonance (SPR) measurements were performed using a Biacore 3000 instrument. Goat F(ab)′2 α-human-F(ab)′2 fragments (Jackson Laboratories) were immobilized with a CM-5 chip using a standard amine coupling protocol. BI-505 (IgG1) and IgG4 or IgG1 297Q variants of BI-505 were diluted to 15 and 60 μg/mL respectively and added to the surface at 10 μL/min for 3 min. His-tagged human FcγRIIIa or mouse FcγRIV was pre-incubated with an α-HIS antibody (R&D Systems) at a 2:1 molar ratio before addition to the chip surface, 30 μL/min, for 1 min. After each cycle the surface was regenerated twice with glycine buffer pH 1.7.

B1: B11: fully human IgG1 antibody specific for ICAM-1; VH and VL sequences of FIG. 10 (SEQ ID NOs. 6 and 8) (antibody, listed as Homo sapiens, V domains shown)
VH: EVQLLESGGGLVQPGGSLRLSCAASGFTFSNAWMSWVRQAPGKGLEWVAFIWYDGSNKYYADSVKGRFTISRDNSKNTLYLQMNSLRAEDTAVYYCARYSGWYFDYWGQGTLVTVSS
VL: QSVLTQPPSASGTPGQRVTISCTGSSSNIGAGYDVHWYQQLPGTAPKLLIYDNNNRPSGVPDRFSGSKSGTSASLAISGLRSEDEADYYCQSYDSSLSAWLFGGGTKLTVLG
For B1, the MFI (Ramos cells) was 654, the “concentration at which binding peaked” value (Ramos cells) was 0.1 µg/mL and the MFI (monocyte cells) was 176. For the same molecule, the “binding” value [1] was “negative”, the MFI [2] was 78 and the “serum hIgG relative to pre-treatment levels” value (primary patient MM cells; 2 mg/kg twice weekly from four weeks after MM cell implantation) was 91±22%. For the same molecule, the “bone osteoclasts” value (primary patient MM cells; TRAP staining, compared to control-treated mice) was “reduced numbers of bone osteoclasts”, the “bone mineral density” value (primary patient MM cells; X-radiography of implanted human bones) was “decreased loss of bone mineral density” and the “serum human IgG levels” value (primary patient MM cells; antibody 2 mg/kg or bortezomib 1 mg/kg twice weekly) was “halted or reduced serum human IgG levels to below pre-treatment levels”. For the same molecule, the “tumor burden in human bone implants” value (primary patient MM cells; human CD138 immunohistochemistry) was “decreased tumor burden” and the “binding to mouse FcγRIV, order” value (mouse FcγRIV) was “IgG1 N297Q<IgG4<IgG1”.

Source: US9803013B2, “Biological materials and uses thereof” (BioInvent International AB, priority 2005, dated 2017)
